Test results taken from article PMC6226536.

Biological target: SlOFP20 (full length, expressed in N. benthamiana leaf cells) (tomato)

“SlTRM5 (full length, expressed in N. benthamiana leaf cells) (natural protein)” showed a cells in which SlTRM5 stayed on the microtubules on co-expression with SlOFP20 in N. benthamiana leaf epidermal cells (% of the cells) of 71.
